Paper PMC8216286
Values belong to the substance of their own block, whether it stands above or below them.

Columns and labels:
[1] = biological target: Staphylococcus aureus Cas9 (SauCas9), wild type (Staphylococcus aureus) (UniProt J7RUA5); assay: BLI; biotinylated SauCas9 protein (or SauCas9-sgRNA complex) loaded on streptavidin biosensors for 60 s; 20°C; 20 mM HEPES pH 7.55, 100 mM KCl, 10 mM MgCl2, 1 mM DTT, 5% glycerol; four or five concentrations of sample
[2] = biological target: SauCas9 (N580A/C946A) (Staphylococcus aureus) (UniProt J7RUA5); assay: crystal structure; SauCas9 (N580A/C946A)-sgRNA-AcrIIA14ct-dsDNA quaternary complex, mixed at 1:1.2:5:2, purified by SEC; hanging drop, 20°C; 2.22 Å
[3] = tested on: SauCas9 (Staphylococcus aureus); assay: BLI; conditions: 10 mM Mg2+, BLI: 20 mM HEPES pH 7.55, 100 mM KCl, 10 mM MgCl2, 1 mM DTT, 5% (w/v) glycerol, 20 C, complex for crystals: 10 mM Tris-HCl pH 8.0, 300 mM NaCl, 3 mM DTT

Kd [1]: 58 nM
Substance: AcrIIA14ct mutant H56K (domain or fragment)

stoichiometry N (AcrIIA14ct per SauCas9) [2]: 1
Kd [1]: 0.00558 nM
Substance: AcrIIA14ct (C-terminal domain of AcrIIA14, residues 60-159) (domain or fragment)

Substance: SauCas9 sgRNA (BLI)
Kd ([3]; biotinylated SauCas9 on streptavidin sensor): 0.473 nM

Substance: SauCas9 sgRNA / target DNA (BLI)
Kd ([3]; target DNA as analyte, SauCas9-sgRNA complex presumably immobilized): 0.535 nM
